Experiment [1] relates to β-catenin translocation to the nucleus. In words: β-catenin immunocytochemistry and nuclear co-localization analysis, PC3. In kind it is cell-based. The following applies: PC3 cells; for Pearson coefficient of nuclear co-localization of β-catenin: Wnt 100 ng/ml vs control, p<0.001 Mann Whitney test. The protocol:
Immunostaining was performed in two different laboratories, independently with the experimenter blind to the identity of the treatment. Either cells used in FluoroDish, post [Ca^2+]i experiments using dyes (see above) or grown in 8 well chamber glass slides (Lab Tek II, Nunc) were used. For Wnt ligand treatment, the culture medium replaced with PBS (without calcium) at 37° C. The experiments were replicated for Wnt ligand or vehicle control as described for [Ca^2+]i measurements. Briefly, Wnt ligands were added and chamber slides incubated at 37° C. for up to 20 min. Chamber wells were washed 3× with 0.5 ml PBS and cells were fixed with 0.5 ml 4% formalin for 30 min at 4° C. Cells were washed 3× with ice cold PBS and stored in 0.5 ml PBS at 4° C. for immunostaining. In some experiments PC3 cells were treated with thaspsigargin as described above.
For immunostaining cells were washed twice for 5 minutes in TBST (20 mM Tris pH 7.4, 0.9% NaCl, 0.1% Tween 20, Sigma). Cells were then incubated in 20% normal goat serum (NGS)/TBST for 30 min at room temperature, the chambers were drained and cells were incubated with mouse anti-β-catenin (ab22656, Abcam, UK) at 1:500 dilution in NGS/TBST overnight at 4° C. Following two further 5 min washes in TBST sections were incubated in goat anti-mouse peroxidase fab (Abcam, UK) at 1:500 dilution for 30 min at room temperature. Following a further two 5 min washes in TBST cells were incubated with tyramide Cy3 (Perkin Elmer) for 10 min at room temperature. Sections were washed twice for 5 min in TBST before nuclear counterstaining with DAPI. After a final two 5 min washes, the chambers were removed and cover slip placed on slides using Permafluor (Thermo Shandon).
Fluorescence immunocytochemical staining for β-catenin expression in cell lines was imaged using Olympus Fluoview 1000 Confocal Microscope (Olympus KeyMed) mounted on an Olympus IX81 inverted microscope using a 20×0.7 NA or 40×1.0 NA dry objective with a zoom of ×3.4′,6-diamidino-2-phenylindole (DAPI, nuclear counterstain) was excited at 405 nm with an emission of 415-500 nm; Cy3 (β-catenin label) signal was excited at 561 nm with an emission spectrum between 570-670 nm. […] Z-stacks of at least 3 fields per sample were imaged and saved in Olympus FV (OIF or OIB) file format.
Nuclear co-localization of β-catenin was calculated by importing FV files for untreated, control or treated cells, into colocalization plugin of Fiji software (http://fiji.sc/Fiji) for Cy3 (β-catenin) and DAPI (nuclear) signals. Pearson co-relation of colocalization were tabulated for 25-90 cells (from 2-5 different passages of cells) using ROI analysis. Statistical significance between untreated and treated cells was calculated using Mann Whitney U test.

For experiment [2], the system named is PC3 prostate cancer cell line. Description: Live [Ca2+]i imaging (Fluo4/FuraRed ratio) after addition of Wnt ligand. The experiment is classed as cell-based. The following applies: PC3 cells; for intracellular calcium mobilization ([Ca2+]i release) in response to Wnt ligand: 100 ng/ml Wnt ligand peptide, ratio of Fluo4/Fura Red; for rise and fall time of [Ca2+]i release: Wnt peptide 100 ng/ml; for dependence of time constants (dwell time) on Wnt ligand concentration / co-operativity: three concentrations of each Wnt ligand, first-order fit. How it is done:
The imaging protocol was developed in the inventor's laboratory and has been described in detail, elsewhere (Wang at al., (2010) PLoS ONE 5, e10456). Briefly, 100000-200000 PC3, MCF7, 253J or Cos 7 cells were plated on 35 mm FluoroDish (WPI) and grown for 48 h; calcium indicators Fluo-4 (Invitrogen) and FuraRed (Invitrogen) at 1 ng/ml were added to FluoroDish containing only 1 ml of culture medium and incubated for 15-20 min at 37° C. The culture medium was removed and washed (×2) and replaced with 1 ml PBS. Live cell calcium Imaging was performed on an Olympus FluoView FV 1000 confocal microscope (Olympus KeyMed) equipped with a 20× dry objective (numerical aperture=0.75). Calcium indicators were excited with an argon laser line (488 nm) and emissions recorded in the green channel (500-560 nm) for Fluo-4 and red channel (600-700 nm) for FuraRed after addition of vehicle control (PBS) or Wnt X (30-600 ng/ml). Images were acquired every 1.1 or 2.2 seconds for up to 600-800s; image and data acquisition was performed using FluoView 1000 software (Olympus, UK). Fluorescent intensity was measured and data exported as a tab delimited file for further analysis using a spreadsheet. All imaging experiments were performed in duplicate; intracellular calcium at 100 ng/ml was measured in at least 3-12 different passages (passage numbers 25 to 37) of cell line for each Wnt ligand. Wnt 11 was tested in at least 5 different passages at 3 different concentrations. To test if the Wnt activated calcium release was from [Ca^2+]i stores, in some cases PC3 cells, loaded with calcium dyes, were incubated with 1-5 μM of thapsigargin (Sigma, UK), resuspended in dimethyl sulfoxide (DMSO), for 20 min at 37° C., prior to addition of Wnt ligand and live calcium imaging (as described above).
The experiments were performed using 35 mm, glass bottom, FluoroDish containing 1 ml PBS, at 37° C., to which ligands were added at desired concentration. In a static, non-superfusing assay system there is a lag time before the start of a response, in this case an increase in the intensity of the Fluo4 signal due to the release of free calcium. To measure the diffusion constant under these conditions we used Pontamine Sky Blue (Sigma Aldridge), which fluoresces in the red spectrum with 488 nm excitation, using standard practice for adding ligands; the diffusion constant was measured to be 23.3±2.1 μm·s^−1 (means±S.E.M, n=8). The calcium wave, in response to Wnt ligands, travelled across the FluoroDish.
After image acquisition, regions of interest (ROI) were drawn over individual PC3 cells (up to 25) in a single frame and calcium intensity measurements were made using FluoView 1000 software (Olympus, UK). The measurements were exported as a tab delimited file into a spreadsheet for further analysis and Fluo4/Fura Red ratios were calculated. The waveform, a product of the ratio of Fluo4 and FuraRed over the period of measurement was used to measure the kinetics of the activation of [Ca^2+]i release in PC3 cells, in response to different Wnt ligands. The time constants (rise, dwell and fall times) were calculated by first fitting the Fluo4/FuraRed ratio to a single Gaussian function (Origin Lab Corp., MA); a lower (10%) and upper (90%) amplitude thresholding method was then used to calculate the time constants (s). Statistical significance was calculated using Mann Whitney U test.
A general note: Calcium assays in cells follow changes in intracellular calcium, usually with a dye or a luminescent sensor.

For `C[C@@H]1O[C@@H](O[C@H]2C[C@@H](O)[C@]3(CO)[C@H]4[C@H](O)C[C@]5(C)[C@@H](C6=CC(=O)OC6)CC[C@]5(O)[C@@H]4CC[C@]3(O)C2)[C@H](O)[C@H](O)[C@H]1O` [Ouabain, reference compound], the “β-catenin translocation to the nucleus after pretreatment with Ouabain (FIG. 21)” value in experiment [1] (Wnt5A treated) was “increases”.

B1: Wnt11: Recombinant Wnt peptide purchased from R&D systems (protein, UniProt O96014 25-354, looked up)
Protein Wnt-11: IKWLALSKTPSALALNQTQHCKQLEGLVSAQVQLCRSNLELMHTVVHAAREVMKACRRAFADMRWNCSSIELAPNYLLDLERGTRESAFVYALSAAAISHAIARACTSGDLPGCSCGPVPGEPPGPGNRWGGCADNLSYGLLMGAKFSDAPMKVKKTGSQANKLMRLHNSEVGRQALRASLEMKCKCHGVSGSCSIRTCWKGLQELQDVAADLKTRYLSATKVVHRPMGTRKHLVPKDLDIRPVKDSELVYLQSSPDFCMKNEKVGSHGTQDRQCNKTSNGSDSCDLMCCGRGYNPYTDRVVERCHCKYHWCCYVTCRRCERTVERYVCK
Take B1: the “intracellular calcium mobilization ([Ca2+]i release) in response to Wnt ligand” value (from here on “intracellular calcium mobilization”) in experiment [2] is “did not mobilize [Ca^2+]i”.

B2: Wnt3A: Recombinant Wnt peptide purchased from R&D systems (protein, UniProt P56704 19-352, looked up)
Protein Wnt-3a: SYPIWWSLAVGPQYSSLGSQPILCASIPGLVPKQLRFCRNYVEIMPSVAEGIKIGIQECQHQFRGRRWNCTTVHDSLAIFGPVLDKATRESAFVHAIASAGVAFAVTRSCAEGTAAICGCSSRHQGSPGKGWKWGGCSEDIEFGGMVSREFADARENRPDARSAMNRHNNEAGRQAIASHMHLKCKCHGLSGSCEVKTCWWSQPDFRAIGDFLKDKYDSASEMVVEKHRESRGWVETLRPRYTYFKVPTERDLVYYEASPNFCEPNPETGSFGTRDRTCNVSSHGIDGCDLLCCGRGHNARAERRREKCRCVFHWCCYVSCQECTRVYDVHTCK
For the molecule B2, in experiment [2], the “intracellular calcium mobilization” value was “induce intracellular calcium mobilization”; the “rise and fall time of [Ca2+]i release” value is “shortest”; the “dependence of time constants (dwell time) on Wnt ligand concentration / co-operativity” value is “negative co-operativity”. The “Pearson coefficient of nuclear co-localization of β-catenin” value in experiment [1] is listed as “significant increase”.

B3: Wnt7A: Recombinant Wnt peptide purchased from R&D systems (protein, UniProt O00755 32-349, looked up)
Protein Wnt-7a: LGASIICNKIPGLAPRQRAICQSRPDAIIVIGEGSQMGLDECQFQFRNGRWNCSALGERTVFGKELKVGSREAAFTYAIIAAGVAHAITAACTQGNLSDCGCDKEKQGQYHRDEGWKWGGCSADIRYGIGFAKVFVDAREIKQNARTLMNLHNNEAGRKILEENMKLECKCHGVSGSCTTKTCWTTLPQFRELGYVLKDKYNEAVHVEPVRASRNKRPTFLKIKKPLSYRKPMDTDLVYIEKSPNYCEEDPVTGSVGTQGRACNKTAPQASGCDLMCCGRGYNTHQYARVWQCNCKFHWCCYVKCNTCSERTEMYTCK
In the case of B3, in experiment [2], the “intracellular calcium mobilization” value was “induce intracellular calcium mobilization” and the “dependence of time constants (dwell time) on Wnt ligand concentration / co-operativity” value is recorded as “no difference”.

B4: Wnt4: Recombinant Wnt peptide purchased from R&D systems (protein, UniProt P56705 23-351, looked up)
Protein Wnt-4: SNWLYLAKLSSVGSISEEETCEKLKGLIQRQVQMCKRNLEVMDSVRRGAQLAIEECQYQFRNRRWNCSTLDSLPVFGKVVTQGTREAAFVYAISSAGVAFAVTRACSSGELEKCGCDRTVHGVSPQGFQWSGCSDNIAYGVAFSQSFVDVRERSKGASSSRALMNLHNNEAGRKAILTHMRVECKCHGVSGSCEVKTCWRAVPPFRQVGHALKEKFDGATEVEPRRVGSSRALVPRNAQFKPHTDEDLVYLEPSPDFCEQDMRSGVLGTRGRTCNKTSKAIDGCELLCCGRGFHTAQVELAERCSCKFHWCCFVKCRQCQRLVELHTCR
B4: in experiment [2], the “intracellular calcium mobilization” value is recorded as “induce intracellular calcium mobilization”; the “rise and fall time of [Ca2+]i release” value is recorded as “slowest”; the “dependence of time constants (dwell time) on Wnt ligand concentration / co-operativity” value was “negative co-operativity”. Besides, the “Pearson coefficient of nuclear co-localization of β-catenin” value in experiment [1] is listed as “significant increase”.

The values above are taken from patent publication US20160271157A1, “BETA-CATENIN” (UCL BUSINESS PLC, priority 2013, published 2016).
